The values that follow come from the nanobody polyreactivity screen of Harvey et al. (2022).

The series can be described thus: yeast display, Sf9 membrane polyspecificity reagent, FACS + sequencing; frameworks hold sequencing errors. In a few lines:
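Nanobodies from a synthetic yeast display library (Saccharomyces cerevisiae BJ5465), induced 36–48 hours with galactose, were stained 1 hour at 4 °C with 10% biotinylated, detergent-solubilized Sf9 membrane reagent, enriched on streptavidin microbeads, then FACS-sorted. Anti-HA (expression) and streptavidin (reagent binding) fluorescence set low and high (top ~1%) gates. Polyreactivity labels come from the gate of origin. Genes were colony-PCR amplified, MiSeq 2 × 250 sequenced and filtered by CDR length.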
On to “QVQLVESGGGLVQAGGSLRLSCAASGRTFCYAMGWSRQAPGKERELVAAISYRGGGTYYADSVTGRFTISRDNAKYTVYLQMTSLKPEDTEVYFCNARQYRPWYPPYGYDYWGQGTQVTVSS”, for which the “polyreactivity (PSR sort gate)” value was “low polyreactivity”. Next, “QVQLVESGGGLVQAGGSLRLSCAASGRTFDAYTMGWYRQAPGKEMELVAAITFSGGNTYYADSVKGRFIISRDNAKNTVYLQMNSLKPEDTAVYYCAARHWIYSTDYSTYYEYDSWGQGTQVTVSS”: “low polyreactivity”. Next, “QVQLVESGGGLVQAGGSLRLSCAASGRTFDDNAMGWYRQAPGKEREFVADIDWSGGDTYYADSVKGRLTISRDNAKNTVYLQMNSLKPEDTAVYYCAARPIISVGRSRYDYWGQGTQVTVSS”: “high polyreactivity”. The same measure for “QVQLVESGGGLVQAGGSLRLSCAASGRTFDDYAMGRYRQAPGKERELVAVITDNGGGTNYADSVKGRFTISRDNAKNTVYLQMNSLKPEDTAVYYCNAASDDFYPGRRTYGRDYWGQGTQVTVSS”: “low polyreactivity”; for “QVQLVESGGGLVQAGGSLRLSCAASGRTFDDYTMGWYRQAPGKERELVAAITGGGSTNYADSVKGRFTISRDNAKNTVYLQMNSLKPEDTAVYYCNAEYSRSYRYDEGYWGQGTQVTVSS”: “low polyreactivity”. Take “QVQLVESGGGLVQAGGSLRLSCAASGRTFDFYAKGWYRQAPGKERELVAAITFSTGSTTYADSVKGRFTISRDNAKNTVYLQMNSLKPEDTAVYYCAADGDGWWWSYVDRYDYWGQGTQVTVSS”: the “polyreactivity (PSR sort gate)” value is given as “low polyreactivity”. The same measure for “QVQLVESGGGLVQAGGSLRLSCAASGRTFDGYAMGWYRPAPGKERELVAAITYTGGSTYYADSVKGRFTISRDNAKNTVYLQMNSLKPEDTAVYYCNALYAVYSDFADDYWGQGTQVTVSS”: “low polyreactivity”. The same measure for “QVQLVESGGGLVQAGGSLRLSCAASGRTFDHNAMGWYRQAPGKERELVAAITSRGGSTYYADSVKGRFTISRDIAKYTGYLQMNSLKPEDTAVYYCAARKRSVYGTEYDYLGQGTQVTVSS”: “high polyreactivity”; for “QVQLVESGGGLVQAGGSLRLSCAASGRTFDIYAMGWYRPAPGKERELVAAISSGGSTYYADSVKGRFTISRDNAKNTVYLQMNSLKPEDTAVYYCAVRWYDQVSRRGIGYYWGQGTQVTVSS”: “low polyreactivity”. As for “QVQLVESGGGLVQAGGSLRLSCAASGRTFDLYAMGWYRQAPGKERELVAAITKGGGSTYYADSVKGRFTLSRDNAKNTVYLQMHSLKPVDTAVYYCAARKYKRIYRISSGIGYYWGQGTQVTVSS”, the “polyreactivity (PSR sort gate)” value is “high polyreactivity”. The same measure for “QVQLVESGGGLVQAGGSLRLSCAASGRTFDLYAMGWYRQAPGKERELVATISRTGSTNYADSVKGRFTISRDNAKNTVYLQMNSLKPEDTAVYYCNADVPVSRWLRHGYYTVGYDYWGQGTQVTVSS”: “low polyreactivity”; for “QVQLVESGGGLVQAGGSLRLSCAASGRTFDRNAMGWYRQAPGKERELVAAITSSGDSTYYADSVKGRFTISRDNSKNTVYLQMNSLKPEDTAVYYCAAGRRFGYWGQGTQVNVSS”: “high polyreactivity”; for “QVQLVESGGGLVQAGGSLRLSCAASGRTFDSNAMGWYRQAPGKERELVAAISGSGDTTYYADSVKGRFTISRDNAKNTVYLQMNSLKPEDTAVYYCAARWGRSSGGGDYWGQGTQVTVSS”: “low polyreactivity”. Next, “QVQLVESGGGLVQAGGSLRLSCAASGRTFDSNAMGWYRQAPGKERELVAAISSGGGSTYYADSVKGRFTISRDNAKNTVYLQMNSLKPEDTAVYYCAAVYHYYRGVNYWGQGTQVTVSS”: “high polyreactivity”; “QVQLVESGGGLVQAGGSLRLSCAASGRTFDTYAMGWYRQAPGKERELVAAITRRTYYADSVKGRFTISRDNAKNTVYLQMNSLKPEDTAVYYCAVRFLRKWTSSRHYGYWGQGTQVTVSS”: “high polyreactivity”; “QVQLVESGGGLVQAGGSLRLSCAASGRTFDYNAMGWSRQAPGKERELVAAISSSGGSTYYADSVKGRFTISRDNAKNTVYLQMNSLKPEDTAVYYCATLYPRKSIYYYWGQGTQVTVSS”: “high polyreactivity”. The same measure for “QVQLVESGGGLVQAGGSLRLSCAASGRTFDYNAMGWYRQAPGKERELVAAISSSGGTTYYADPVKGRFTISRDNAKNTVYLQMNSLKPEDTAVYYCNADVGHKYKRRVSLYYWGQGTQVTVSS”: “low polyreactivity”; for “QVQLVESGGGLVQAGGSLRLSCAASGRTFDYNAMGWYRQAPGKEWELVADIRLISGNTYYADSVKGRFTISRDNAKNTVYLQMNSLKPEETAVYYCAATSDGVPSLYGGMDYRGQGTQVTVSS”: “low polyreactivity”. In the case of “QVQLVESGGGLVQAGGSLRLSCAASGRTFDYYAMGWYRQAPGKERELVARISWNGGSTRYADSVKGRFTISRDNAKNTVYLQMNSLKPEDTAVYYCAARYILLARKYDYWGQGTQVTVSS”, the “polyreactivity (PSR sort gate)” value was “high polyreactivity”. The same measure for “QVQLVESGGGLVQAGGSLRLSCAASGRTFDYYSMGWYRQAPGTERELVAAISSSGGRTYYADSVKGRFTISRDNAKNTVYLQMNSLKPEDTAVYYCNAVVSRNYEYWGQGTQVTVSS”: “high polyreactivity”; for “QVQLVESGGGLVQAGGSLRLSCAASGRTFEIYAMGWYRQAPGKERDLVAAITSGGSTYYADSEKGRFTISRDNAKNTVYLQMNSLKPEDTAVYYCAADSSLYGVIRDFDYWGQGTQVTVSS”: “high polyreactivity”. Next, “QVQLVESGGGLVQAGGSLRLSCAASGRTFELYAMGWYRQAPGKERELVAAIRQSDVSTYYADSVKGRFTISRDNAKNTVYLQMNSLKPEDTAVYYCAARNRYRRRYYYWGQGTQVTVSS”: “high polyreactivity”. Next, “QVQLVESGGGLVQAGGSLRLSCAASGRTFEPNAMGWYRPAPGKERELVAAISSSDGSTYYADSVKGRFTISRDNAKNTVYLQMNSLKPEDTAVYYCAADAGYLYDWPYNYYYWGQGTQVTVSS”: “low polyreactivity”. For “QVQLVESGGGLVQAGGSLRLSCAASGRTFEQYAMGWYRQARGKERELVAAISGSGGSTFYADSVKGRFTISRDNAKNTVYLQMNSLKPEDTAVYYCNAPGDGYLYDHTYDYWGQGTQVTVSS”, the “polyreactivity (PSR sort gate)” value is “low polyreactivity”. On to “QVQLVESGGGLVQAGGSLRLSCAASGRTFEQYAMVWYRQAPGKERELVAAISGSGGSTFYADSVKGRFTISRDNAKNTVYLQMNSLKPEDTAVYYCNAPGDGYLYDHTYDYGGQGTQVTVSS”, for which the “polyreactivity (PSR sort gate)” value is “low polyreactivity”. Consider “QVQLVESGGGLVQAGGSLRLSCAASGRTFEQYSMGWYRQAPGKERELVAAISGSGGSTFYADSVKGRFTISRDNAKNTVYLQMNSLKPEDTAVYYCNAPGDGYLYDHTYDYWGQGTQVTVSS”, for which the “polyreactivity (PSR sort gate)” value was “low polyreactivity”.

For the sequence “QVQLVESGGGLVQAGGSLRLSCAASGRTFESYVMGWYRQAPGKESELVAAISNGGSTNYADSVKGRFTISRDNAKNTVYLQMNSLKPEDTAVYYCAVRVSGPRGYDYEYWGQGTQVTVSS”, the “polyreactivity (PSR sort gate)” value was “low polyreactivity”. For “QVQLVESGGGLVQAGGSLRLSCAASGRTFEYYAMGWYRQAPGKERELVASITSGGITNYADSVKGRFTISRDNAKNTVYLQMNSLKPEDTAVYYCNKRPWTRFDWGQGTQVTVSS”, the “polyreactivity (PSR sort gate)” value is reported as “low polyreactivity”. Next, “QVQLVESGGGLVQAGGSLRLSCAASGRTFFDYTMGWYRQAPGKERELVAAITGGDGSTYYADSVKGRFTISRDNAKNTVYLQMNSLKPEDTAVYYCAAGYTAGSYSLDADYYWGQGTQVTVSS”: “low polyreactivity”; “QVQLVESGGGLVQAGGSLRLSCAASGRTFFFYAMGWYRQAPGKERELVAGITSRGTRTYYADSVKGRFTISRDNAKNTVYLQMNSLKPEDTAVYYCATDDCRDWLNYWGQGTQVTVSS”: “low polyreactivity”; “QVQLVESGGGLVQAGGSLRLSCAASGRTFFHYAMGGSRQAPGKERELVAAMTSRGDSTYYADSVKGRFTISRDNAKNTVYLQMNSLKPAETAVYYCAVYSHRRNMNYWGQGTQVTVSS”: “high polyreactivity”.

As to “QVQLVESGGGLVQAGGSLRLSCAASGRTFFINAMGWYRQAPGKERELVAAMRVGAGSTYYADSVKGRFTISRDNAKNTVYLQMNSLKPEDTAVYYCSKRTATSTRKYDYWGQGTQVTVSS”, the “polyreactivity (PSR sort gate)” value is recorded as “high polyreactivity”. Next, “QVQLVESGGGLVQAGGSLRLSCAASGRTFFINTMGWYRQAPGKEREFVAAITWSAGRTYYADSVKGRFTISRDNAKNTVYLQMNSLKPEDTAVYYCAAALHGHTFPFYYWGQGTQVTVSS”: “low polyreactivity”; “QVQLVESGGGLVQAGGSLRLSCAASGRTFFIYAMGWYRQAPGKERELVAAIRWRGGSTYYADSVKGRFTISRDNAKNTVYLLMNSLKPEDTAVYYCAASTRQARYEDYYWGQGTQVTVSS”: “high polyreactivity”. The same measure for “QVQLVESGGGLVQAGGSLRLSCAASGRTFFKYAMGWYRQAPGKERELVATITSSGGITYADSVKGRFTISRDNAKNTVYLQMNSLKPEDTAVYYCNARVWVTHYSELNYWGQGTQLTVSS”: “low polyreactivity”. Next, “QVQLVESGGGLVQAGGSLRLSCAASGRTFFKYVKGWYRQAPGKERELVAAISSGGSTNYADSVKGRFTISRDNAKNTVYLQMNSVKPEDTAVYSCAASRYRGYYYWGQGTQVTVSS”: “high polyreactivity”. Regarding “QVQLVESGGGLVQAGGSLRLSCAASGRTFFLYTMGWYRQAPGKEREFVAAINYSGGRTYYADSVKGRVTISRDHAKNTVYLQMNSLKPEDTAVDYCNAVYSFLYPDHMGYWGQGTQVTVSS”, the “polyreactivity (PSR sort gate)” value was “high polyreactivity”. Next, “QVQLVESGGGLVQAGGSLRLSCAASGRTFFPYAMGWYRPAPGKERELVAAITRSGSTYYADSVKGRFTISRDNAKNTVYLQMNSLKPEDTAVYYCAADYSPWRSDFDYWGQGTQVTVSS”: “low polyreactivity”; “QVQLVESGGGLVQAGGSLRLSCAASGRTFFPYAMGWYRQEPGKERELVADIRRGGSTYYADSVKGRFTISRDNAKNNVYLQMYSLKPEDTAVYYCNVDFWWNRLYELDYWGQGTQVTVSS”: “high polyreactivity”; “QVQLVESGGGLVQAGGSLRLSCAASGRTFFRYAMGWYRQAPGKERELVAAISRSGGGTYYADSVKGRFTISRDNAKNTVYLQMNSLKPEDTAVYYCNRDDYSRNHVYEFDYWGQGTQVTVSS”: “low polyreactivity”.

Take “QVQLVESGGGLVQAGGSLRLSCAASGRTFFRYVMGWYRQAPGKERELVAAISRSGGSTYYADSVKGRFTISRDNAKITVYLQMNSLKTEDTAVYYCNSVARSTVVPTEFDYWGQGTQVTVSS”: the “polyreactivity (PSR sort gate)” value is recorded as “high polyreactivity”.
